From paper PMC4282169

Key:
[1] = substrate: O=[N+]([O-])c1ccc(O[C@@H]2O[C@H](CO)[C@@H](O[C@@H]3O[C@H](CO)[C@@H](O[C@@H]4O[C@H](CO)[C@@H](O[C@@H]5O[C@H](CO)[C@@H](O)[C@H](O)[C@H]5O)[C@H](O)[C@H]4O)[C@H](O)[C@H]3O)[C@H](O)[C@H]2O)c(Cl)c1; assay: 2-chloro-4-nitrophenolate release, A405, continuous; type: biochemical, Bacteroides ovatus; details: 37 °C, 50 mM buffer at or near pH optimum (6.0-7.0)
[2] = substrate: O=[N+]([O-])c1ccc(O[C@@H]2O[C@H](CO)[C@@H](O[C@@H]3O[C@H](CO[C@H]4OC[C@@H](O)[C@H](O)[C@H]4O)[C@@H](O[C@@H]4O[C@H](CO[C@H]5OC[C@@H](O)[C@H](O)[C@H]5O)[C@@H](O[C@@H]5O[C@H](CO[C@H]6OC[C@@H](O)[C@H](O)[C@H]6O)[C@@H](O)[C@H](O)[C@H]5O)[C@H](O)[C@H]4O)[C@H](O)[C@H]3O)[C@H](O)[C@H]2O)c(Cl)c1; assay: as above; type: biochemical, Bacteroides ovatus; details: 37 °C, 50 mM buffer at or near pH optimum (6.0-7.0)
purified protein [3] = substrate: O=[N+]([O-])c1ccc(O[C@H]2O[C@H](CO)[C@@H](O)[C@H](O)[C@H]2O)cc1; assay: purified protein; details: 37 °C, 50 mM buffer at or near pH optimum (6.0-7.0)
[4] = substrate: O=[N+]([O-])c1ccc(O[C@H]2OC[C@@H](O)[C@H](O)[C@H]2O)cc1; assay: 4-nitrophenolate release, A410; type: biochemical, Bacteroides ovatus; details: 37 °C, 50 mM buffer at or near pH optimum (6.0-7.0)
HPLC = substrate: OC[C@H]1O[C@@H](O[C@H]2[C@@H](OC[C@H]3O[C@@H](O[C@H]4[C@H](O)[C@@H](O)[C@H](O[C@H]5[C@H](O)[C@@H](O)C(O)O[C@@H]5CO)O[C@@H]4CO[C@H]4OC[C@@H](O)[C@H](O)[C@H]4O[C@@H]4O[C@H](CO)[C@H](O)[C@H](O)[C@H]4O)[C@H](O)[C@@H](O)[C@@H]3O[C@@H]3O[C@H](CO[C@H]4OC[C@@H](O)[C@H](O)[C@H]4O)[C@@H](O)[C@H](O)[C@H]3O)OC[C@@H](O)[C@@H]2O)[C@H](O)[C@@H](O)[C@H]1O; assay: HPLC; type: biochemical, Bacteroides ovatus; details: 37 °C, 50 mM buffer at or near pH optimum (6.0-7.0)
purified protein [5] = substrate: O=[N+]([O-])c1ccc(O[C@@H]2O[C@H](CO)[C@H](O)[C@H](O)[C@H]2O)cc1; assay: purified protein; details: 37 °C, 50 mM buffer at or near pH optimum (6.0-7.0)
[6] = substrate: O=[N+]([O-])c1ccc(O[C@@H]2O[C@@H](CO)[C@H](O)[C@H]2O)cc1; assay: continuous 4-nitrophenolate release; type: biochemical, Bacteroides ovatus; details: 37 °C, pH 7.0
[7] = substrate: O=[N+]([O-])c1ccc(O[C@@H]2O[C@@H](CO)[C@H](O)[C@H]2O)cc1; assay: 4-nitrophenolate release, A410; type: biochemical, Bacteroides ovatus; details: 37 °C, 50 mM buffer at or near pH optimum (6.0-7.0)
[8] = substrate: O=[N+]([O-])c1ccc(O[C@@H]2OC[C@@H](O)[C@H](O)[C@H]2O)cc1; assay: 4-nitrophenolate release, A410; type: biochemical, Bacteroides ovatus; details: 37 °C, 50 mM buffer at or near pH optimum (6.0-7.0)
purified protein [9] = substrate: O=[N+]([O-])c1ccc(O[C@@H]2O[C@H](CO)[C@@H](O)[C@H](O)[C@H]2O)cc1; assay: purified protein; details: 37 °C, 50 mM buffer at or near pH optimum (6.0-7.0)

B1: BoGH5A (Bacteroides ovatus ATCC 8483) (protein)
chain: SNSDEKGGSLEVAQEYRNLEFDARGSRQTIQIDGPAEWHISTSESWCKSSHTIGEGKQYVNITVEANDTQKERTATVTVSASGAPDIIINVKQSLYSVPAYDEYIAPDNTGMRDLTSMQLSALMKAGVNVGNTFEAVIVGNDGSLSGDETCWGNPTPNKVLFEGIKAAGFDVVRIPVAYSHQFEDAATYKIKSAWMDKVEAAVKAALDAGLYVIINIHWEGGWLNHPVDANKEALDERLEAMWKQIALRFRDYDDRLLFAGTNEVNNDDANGAQPTEENYRVQNGFNQVFVNTVRATGGRNHYRHLIVQAYNTDVAKAVAHFTMPLDIVQNRIFLECHYYDPYDFTIMPNDENFKSQWGAAFAGGDVSATGQEGDIEATLSSLNVFINNNVPVIIGEYGPTLRDQLTGEALENHLKSRNDYIEYVVKTCVKNKLVPLYWDAGYTEKLFDRTTGQPHNAASIAAIMKGLN
Work on B1 yielded a Km [1] of 3590 ± 1270 µM, a kcat [1] of 0.12 ± 0.025 s⁻¹ and a kcat/Km [1] of 34 M⁻¹ s⁻¹. It also gave a Km [2] of 36 ± 2.7 µM, a kcat [2] of 10.5 ± 0.14 s⁻¹ and a kcat/Km [2] of 292000 M⁻¹ s⁻¹.

B2: BoGH31A (Bacteroides ovatus ATCC 8483) (protein)
chain: SNKVYEKTGDSVIVKVQHKETGGPRLVRLQVMGDKLIHVSATADSKFADPQSLIVVPQKKQTSFAVVQNGDTITVSTEEVKASVLASTGEVWFTDKNGELILQENKGGGKTFTPIEVEGTKGYTVCQVFESPEDEAFYGLGQHQADEFNYKGKNEELFQYNTKVSVPFVVSNKNYGILLDSYSFCRFGNPNDYSQLNRIFKLYDKTGQEGALTGTYVPKKGETLVRREDSIYFENLKTIENLPKKLPLMGAKVTYEGEIEPAQTGEFKFILYYAGYVKVYLNNEPVVPERWRTAWNPNSYKFAAHLEAGKRVPLKIEWQPDGGQSYCGLRALTPVNPEEQGKQSWWSEMTKQLDYYFMAGENMDDVISGYRSLTGKSPVMPKWAMGFWQSREKYNTQEEMLGALKGFRDRKIPLDNIVLDWNHWPENAWGSHEFDKARFPDPKAMVDSIHAMHARMMISVWPKFYVTTEHFKEFDENGWMYQQSVKDSLKDWVGPGYHYGFYDAYDPDARKLFWKQMYEHYYPLGIDAWWMDASEPNVRDCTDLEYRKALCGPTALGSSTEFFNAYALMNAEAIYDGQRGVDNNKRVFLLTRSGFAGLQRYSTATWSGDIGTRWEDMKAQISAGLNFAMSGIPYWTMDIGGFCVENRYVAGQKQWNATKTENADYKEWRELNTRWYQFGAFVPLYRAHGQYPFREIWEIAPEGHPAYQSVVYYTKLRYNMMPYIYSLAGMTWFDDYTIMRPLVMDFTADAEVNDIGDQFMFGPSFMVSPVYRYGDRSREIYFPQAEGWYDFYSGKFQAGGERKVIEAPYERIPLYVRAGAIIPFGDDIQYTDEKPAEHIRLYIYQGADGEFTLYEDEGVNYNYEQGMYAMIPMKYDEATKTLVIGERQGEFPGMLKERTFTVVTVNKEKAQPFDLNAKGVTVKYNGSEQTLKL
B2 was tested, and the Km (purified protein [3]) was 31800 ± 5100 µM, the kcat (purified protein [3]) was 0.071 s⁻¹ and the kcat/Km (purified protein [3]) was 2.2 M⁻¹ s⁻¹. It also gave a Km [4] of 7700 ± 273 µM, a kcat [4] of 1.6 ± 0.031 s⁻¹ and a kcat/Km [4] of 210 M⁻¹ s⁻¹. For the same protein, the Km (HPLC) was 378 ± 75 µM, the kcat (HPLC) was 31 ± 1.9 s⁻¹ and the kcat/Km (HPLC) was 82000 M⁻¹ s⁻¹.

B3: BoGH2A (Bacteroides ovatus ATCC 8483) (protein)
chain: LALGGCLMLLGACSSSSLVSPRERSDFNADWRFHLGDGLQAAQPGFADNDWRVLDLPHDWAIEGDFSQENPSGTGGGALPGGVGWYRKTFSVDKADAGKIFRIEFDGVYMNSEVFINGVSLGVRPYGYISFSYDLTPYLKWDEPNVLAVRVDNAEQPNSRWYSGCGIYRNVWLSKTGPIHVGGWGTYVTTSSVDEKQAVLNLATTLVNESDTNENVTVCSSLQDAEGREVAETRSSGEAEAGKEVVFTQQLTVKQPQLWDIDTPYLYTLVTKVMRNEECMDRYTTPVGIRTFSLDARKGFTLNGRQTKINGVCMHHDLGCLGAAVNTRAIERHLQILKEMGCNGIRCSHNPPAPELLDLCDRMGFIVMDEAFDMWRKKKTAHDYARYFNEWHERDLNDFILRDRNHPSVFMWSIGNEVLEQWSDAKADTLSLEEANLILNFGHSSEMLAKEGEESVNSLLTKKLVSFVKGLDPTRPVTAGCNEPNSGNHLFRSGVLDVIGYNYHNKDIPNVPANFPDKPFIITESNSALMTRGYYRMPSDRMFIWPKRWDKSFADSTFACSSYENCHVPWGNTHEESLKLVRDNDFISGQYVWTGFDYIGEPTPYGWPARSSYFGIVDLAGFPKDVYYLYQSEWTDKQVLHLFPHWNWTPGQEIDMWCYYNQADEVELFVNGKSQGVKRKDLDNLHVAWRVKFEPGTVKVIARESGKVVAEKEICTAGKPAEIRLTPDRSILTADGKDLCFVTVEVLDEKGNLCPDADNLVNFTVQGNGFIAGVDNGNPVSMERFKDEKRKAFYGKCLVVIQNDGKPGKAKLTATSEGLRQAVLKISAEEL
With B3 the Km (purified protein [5]) was 87 ± 7.4 µM, the kcat (purified protein [5]) was 4 s⁻¹ and the kcat/Km (purified protein [5]) was 46000 M⁻¹ s⁻¹.

B4: BoGH43B (Bacteroides ovatus ATCC 8483) (protein)
chain: QKTFRNPIITGMNPDPSICRVGDDFYLVTSTFEYFPGLPVYHSKDLVHWKLIGHALSRPENNPLMGCNASTGGQYAPTLRYHDGTFYVIGTNYGGKGSQGVFYVTAKNPAGPWSDPVWVGNWYVDPSIEFIDGKMYFLSPDNQGSFLLGVMDPETGTFVEALRKVASGLGGSSPEGPHFYKIGDYYYIMSAEGGTGYEHREVIQRSKSPWGPYEPSPVNPVLSNMNCPDHPFQAIGHADLVQLKDGSWWAVCLGIRPVNGKYQHLGRETFLAPVTWDADGWPKVGKDGVVQETYLFPNLPSHVWMEQPVRDDFDQETLGLDWTFIRNPAHSFWSLTEKPGSLRLKGTAINFTTNDSPSFIGRRQAAFNLTASAKVNFIPKVENEEAGLVVRADDKNHYDLLITERNGQRVAMIRKTLKDKVVDTTCKELPATGEVILSITATETTYTFEIKAAHVSAILGTASTRDVSNEVVGGFTGVFIGMYASGNGQANTNPADFDWFDFRCLD
With B4 the Km [6] was 6600 ± 2300 µM, the kcat [6] was 0.0005 ± 8.1e-05 s⁻¹ and the kcat/Km [6] was 0.076 M⁻¹ s⁻¹.

B5: BoGH43A (Bacteroides ovatus ATCC 8483) (protein)
chain: QGYSNPVIPGFHPDPSVCKAGDDYYLVNSSFQYFPGVPLFHSKDLVHWEQIGNCLTRPSQLDLTNANSGSGIFAPTIRYNDGVFYMITTNVSGKGNFLVHTTDPRSEWSEPVWLEQGGIDPSLYFEDGKCFMVSNPDGYINLCEIDPMTGKQLSSSKRIWNGTGGRYAEGPHIYKKDGWYYLLISEGGTELGHKVTIARSRYIDGPYQGNPANPILTHANESGQSSPIQGTGHADLVEGTDGSWWMVCLAYRIMPGTHHTLGRETYLAPVRWDKDAWPVVNSNGTISLKMDVPTLPQQEMKGRPERIDFKEGKLSPEWIHLQNPEAKNYIFTKDGKLRLIATPVTLSDWKSPTFVALRQEHFDMEASAPVVLQKAGVNDEAGISVFMEFHSHYDLFVRQDKDRKRSVGLRYKLGEITHYAKEVSLPTDGEVELVVKSDINYYYFGYKVNGIYHDLGKMNTRYLSTETAGGFTGVVLGLYITSASKDSKAYADFEYFKYKGKPGENK
For B5, the Km [7] was 710 ± 30 µM, the kcat [7] was 0.057 ± 0.001 s⁻¹ and the kcat/Km [7] was 81 M⁻¹ s⁻¹. The Km [8] was 6580 ± 210 µM, the kcat [8] was 0.26 ± 0.005 s⁻¹ and the kcat/Km [8] was 39 M⁻¹ s⁻¹.

B6: BoGH3B (Bacteroides ovatus ATCC 8483) (protein)
chain: QTASPVIPTDPAIETHIREWLQKMTLEQKIGQMCEITIDVVSDLETSRKKGFCLSEAMLDTVIGKYKVGSLLNVPLGVAQKKEKWAEAIKQIQEKSMKEIGIPCIYGVDQIHGTTYTLDGTMFPQGINMGATFNRELTRRGAKISAYETKAGCIPWTFAPVVDLGRDPRWARMWENYGEDCYVNAEMGVSAVKGFQGEDPNRIGEYNVAACMKHYMGYGVPVSGKDRTPSSISRSDMREKHFAPFLAAVRQGALSVMVNSGVDNGLPFHANRELLTEWLKEDLNWDGLIVTDWADINNLCTRDHIAATKKEAVKIVINAGIDMSMVPYEVSFCDYLKELVEEGEVSMERIDDAVARVLRLKYRLGLFDHPYWDIKKYDKFGSKEFAAVALQAAEESEVLLKNDGNILPIAKGKKILLTGPNANSMRCLNGGWSYSWQGHVADEYAQAYHTIYEALCEKYGKENIIYEPGVTYASYKNDNWWEENKPETEKPVAAAAQADIIITCIGENSYCETPGNLTDLTLSENQRNLVKALAATGKPIVLVLNQGRPRIINDIVPLAKAVVNIMLPSNYGGDALANLLAGDANFSGKMPFTYPRLINALATYDYKPCENMGQMGGNYNYDSVMDIQWPFGFGLSYTNYKYSNLKVNKPTFNADDELIFTVDVTNTGKVAGKESVLLFSKDLVASSTPDNIRLRNFEKVSLEPGETKTVTLKLKGSDLAFVGYDGKWRLEKGDFKIKCGDQWMDIVCDQTKVWNTPNKNTLHK
Work on B6 yielded a Km (purified protein [9]) of 155 ± 39 µM, a kcat (purified protein [9]) of 1.74 s⁻¹ and a kcat/Km (purified protein [9]) of 11200 M⁻¹ s⁻¹.
